The data set addresses T1, IS608 TnpA transposase (Helicobacter pylori (IS608), UniProt Q933Z0 1-155).
T1 sequence: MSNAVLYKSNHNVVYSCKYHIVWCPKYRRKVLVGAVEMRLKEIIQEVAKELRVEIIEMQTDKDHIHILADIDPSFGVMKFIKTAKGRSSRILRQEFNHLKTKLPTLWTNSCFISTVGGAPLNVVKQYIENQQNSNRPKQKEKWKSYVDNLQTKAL
Description: X-ray crystallography (2.6 A); Ca2+; 2 LE29 and 2 T6' per TnpA dimer; pre-cleavage target capture complex; Crystal complex: TnpA:LE29:T6' 1:1:1.3, 20 mM Tris-HCl pH 7.5, 0.2 M NaCl, 0.2 mM TCEP, 2 mM EDTA; crystallized with 14.6% PEG 3350, 0.19 M calcium acetate; cleavage and integration assays are activity read-outs and not listed. Conditions: protein: recombinant; chain copies: 2; LE29 imperfect hairpin; GL of LE29 pairs with TTAC of T6', A+42 and T+43 form base triplets; 2 copies of each strand per TnpA dimer.

B1: LE29 hairpin + T6' target oligo (structured_DNA)
DNA 1: AAAGCCCCTAGCTTTTAGCTATGGGGATA
DNA 2: ATTACC
In the case of B1, the binding result was “binds”.

Values taken from article PMC5934647, “Targeting IS608 transposon integration to highly specific sequences by structure-based transposon engineering”.
